One block for each binder: values may come before it.
Biological target: T1, recombinant folate receptor alpha protein (immobilized) (UniProt P15328 25-233, limits assumed)
T1 construct: also called FRa
Test: binding of GFP+ IR T cells to immobilized recombinant protein (FIG. 3A)

T1 sequence (P15328 25-233 limits assumed): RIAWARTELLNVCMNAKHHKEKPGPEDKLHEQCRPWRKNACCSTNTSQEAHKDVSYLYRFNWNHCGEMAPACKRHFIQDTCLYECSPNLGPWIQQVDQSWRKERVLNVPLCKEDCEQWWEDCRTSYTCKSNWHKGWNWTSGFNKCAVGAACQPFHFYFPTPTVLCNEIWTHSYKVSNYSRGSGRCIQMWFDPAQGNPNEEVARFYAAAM

binding result: no binding
B1: Anti-FSHRb33-53FSH-28z immunoreceptor (on primary human T cells) (other)
chain: not shown
notes: also called anti-FSHR (33-53)-28z IR; Anti-FSHR(33-53)-28z

binding result: no binding
B2: Anti-FSHRb51-65FSH-28z immunoreceptor (on primary human T cells) (other, not shown: large carriers)
chain: not shown
notes: Chimeric immunoreceptor on transduced primary human T cells; also called anti-FSHR (51-65)-28z IR; Anti-FSHR(51-65)-28z
